40 sequences from the nanobody polyreactivity screen of Harvey et al. (2022) can be followed below.

This data set is described as follows: yeast display, Sf9 membrane polyspecificity reagent, FACS + sequencing; frameworks hold sequencing errors. The procedure, abridged: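 Synthetic nanobody libraries on Saccharomyces cerevisiae BJ5465 were galactose-induced for 36–48 hours, stained 1 hour at 4 °C with 10% biotinylated, detergent-solubilized Sf9 membrane reagent and enriched on streptavidin microbeads. FACS then separated cells into low and high (top ~1%) gates by anti-HA (expression) and streptavidin (reagent binding) fluorescence. Genes were colony-PCR amplified, MiSeq 2 × 250 sequenced and CDR-length filtered. A clone's polyreactivity label is that of its gate of origin.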
On to “QVQLVESGGGLVQAGGSLRLSCAASGSTFDANDMGWYRQAPGKERELVAAITIGGGSTYYADSVKGRFTISRDNAKNTVYLQMNSLKPEDTAVYYCAKDDHTGVHTYPVDYWGQGTQVTVSS”, for which the “polyreactivity (PSR sort gate)” value is reported as “low polyreactivity”. For “QVQLVESGGGLVQAGGSLRLSCAASGSTFDDYAMGWYRQAPGKERELVAAISSAGTTYYADSVKGRFTISRDNAKNTVYLQMNSLKPEDTAVYYCNTVLYPVWYVNFSLRYRYDYYWGQGTQVTVSS”, the “polyreactivity (PSR sort gate)” value is “high polyreactivity”. In the case of “QVQLVESGGGLVQAGGSLRLSCAASGSTFDDYTMGWYRQAPGKERELLAAISSDSSTNYADSVKGRFTISRDNAKNTVYLQMNSLKPEDTAVYYCATRSRTTKIVRWPGMYYWGQGTQVTVSS”, the “polyreactivity (PSR sort gate)” value was “high polyreactivity”. Consider “QVQLVESGGGLVQAGGSLRLSCAASGSTFDGNAMGWYRPAPGKERELVAAITWRDGSTSYADSVKGRFTISRDNAKNTVYLQMNSLKPEDTAVYYCNADPGYLDEEYWGQGTQVTVSS”, for which the “polyreactivity (PSR sort gate)” value is “low polyreactivity”.

As for “QVQLVESGGGLVQAGGSLRLSCAASGSTFDGNAMGWYRQAPGKERELVAAITSGGSTNYADSVKGRFTILRDNAKNTVYLQMNSLKPEDTAVYYCAAGWLYARWHSYVGYYYWGQGTQVTVSS”, the “polyreactivity (PSR sort gate)” value is reported as “low polyreactivity”. Consider “QVQLVESGGGLVQAGGSLRLSCAASGSTFDINAMGWYRQAPGKERHLVAAITYDTTTTYYADSVKGRFTISRDNAKNTVYLLMNSLKPEDTAVYYCAVEGLLGDTTYVQGYPYWYNYWGQGTQVTVSS”, for which the “polyreactivity (PSR sort gate)” value was “low polyreactivity”. Take “QVQLVESGGGLVQAGGSLRLSCAASGSTFDIYAMGWYRQAPGKERELVAAITGSSGSTYYADSVKGRFTISRDNAKNTVYLQMNSLKPEDTAVYYCAADIVRVSTVPSLVYSYYWGQGTQVTVSS”: the “polyreactivity (PSR sort gate)” value was “low polyreactivity”. With “QVQLVESGGGLVQAGGSLRLSCAASGSTFDIYVMGWYRQAPGKESELVAAISRVGNTSYADSVKGRFTISRDNAKNTVNLQMNSLKPEDTAVYYCAADAPSWYDRQYDYWGQCTQVTVSS” the entry was “low polyreactivity”; with “QVQLVESGGGLVQAGGSLRLSCAASGSTFDPKAMGWYRQAPGKERELVAAISYTGGRTYYADSVKGRFTISRDNAKNTVYLQMNSLKPEDTAVYYCAVLVVGSTTQDEPYFSGVEHDYWGQGTQVTVSS”, “low polyreactivity”; with “QVQLVESGGGLVQAGGSLRLSCAASGSTFDPYAMGWYRQAPGKERELVAGISASGGSTYADSVKGRFTISRDNAKNTVYLQMNSLKPEDTACYYCAADTYLIRGPPDEEYWGQGTQVTVSS”, “low polyreactivity”.

For the sequence “QVQLVESGGGLVQAGGSLRLSCAASGSTFDQYGMGWYRQAPGKDRELVAAITSVGGTNYADSVKGRFTISRDNAKKTVYLQMNSLKPEDTAVYYCARRYPKNHKAPGRMDYWGQGTQVTVSS”, the “polyreactivity (PSR sort gate)” value is recorded as “low polyreactivity”.

For the sequence “QVQLVESGGGLVQAGGSLRLSCAASGSTFDRNVMGWYRQAPGKERELVAAISRVSSTNYADSVKGRFTISRDNAKNTVYLQMNSLKPEDTAVYYCAVDRAGSIMNYWGQGTQVTVSS”, the “polyreactivity (PSR sort gate)” value is listed as “low polyreactivity”. As to “QVQLVESGGGLVQAGGSLRLSCAASGSTFDRYAMAWYRQAPGKERELVAAISKNGGRTYYADSVKGRFTISRDNAKNTVYLQMNSLKPEDTAVYYCAKDIIKYDYDYWGQGTQVTVSS”, the “polyreactivity (PSR sort gate)” value is “low polyreactivity”. Consider “QVQLVESGGGLVQAGGSLRLSCAASGSTFDRYAMGWYRQAPGKERELVAAISCSGGRTYYADSVKGRFTISRDNEKNTVYLQMNSLKPEDTAVYYCATVSRSSLAYIKYDYWGQGTQVTVSA”, for which the “polyreactivity (PSR sort gate)” value is given as “high polyreactivity”. For “QVQLVESGGGLVQAGGSLRLSCAASGSTFDRYDMVWYRQAPGKETELVAAITRRGGSTYYADSVKGRFTFSRDNAKNTVYLQMNSLQPEDTAVYYCNAKHFAYSVAHPYLRYGYDYWGQGTHVTVSS”, the “polyreactivity (PSR sort gate)” value is listed as “low polyreactivity”. As to “QVQLVESGGGLVQAGGSLRLSCAASGSTFDSNAMGWYRQAPGKERELVAGITIGGSTNYADSVKGRFTISRDNAKNTVFLQMNSLKPEDTAVYYCNVVKYVYIYSYWEYYYWGQGTQVTVSS”, the “polyreactivity (PSR sort gate)” value is listed as “low polyreactivity”.

For “QVQLVESGGGLVQAGGSLRLSCAASGSTFDSYAMGWYRQAPGKEGELVAAITGGGDTNYADSVKGRFTISRDNAKNTVYLQMNSLKPEDTAVYYCAAYQRRGNYQMDLWGQGTQVTVSS”, the “polyreactivity (PSR sort gate)” value is on record as “low polyreactivity”. In the case of “QVQLVESGGGLVQAGGSLRLSCAASGSTFDSYAMGWYRQAPGKERELVAAITNGGSTYYADSVKGRFTISRDNAKNTVYLQMNSLKPEDTEVYYCATDDYLLDYLYDYWGQGTQVTVSS” it was “low polyreactivity”. “QVQLVESGGGLVQAGGSLRLSCAASGSTFDTYAMGWYRQAPGKERELGAAISWSVDSTYYADSVKGRFTISRDNAKNTVYLQMNSLKPEDTAVYYCATVGYGYDYWGQGTQVTVSS”: the “polyreactivity (PSR sort gate)” value is “high polyreactivity”. As to “QVQLVESGGGLVQAGGSLRLSCAASGSTFDTYAMGWYRQAPGKERELVAAISYRGGNTYYADSVKGRFTISRDNAKNTVYLQMNSLKPEDTAVYYCAASYFDPASIPVAFNYWGQGTQVTVSS”, the “polyreactivity (PSR sort gate)” value was “low polyreactivity”. “QVQLVESGGGLVQAGGSLRLSCAASGSTFDVNAMGSYRQAPGKERELVAAISWNSGSTYFADSVKGRFTISRDNAKNTVYLQMNRLKPEDTAVYYCAATYGTGRRSKYGYWGQGTQVTVSS”: the “polyreactivity (PSR sort gate)” value is on record as “high polyreactivity”.

“QVQLVESGGGLVQAGGSLRLSCAASGSTFDVNAMGWYRQAPGKERELVAAITQSGGSTFYADSVKGRFTISRDNAKNTVYLQMNSLKPEDTAVYYWGQGTQVTVSS”: the “polyreactivity (PSR sort gate)” value is listed as “low polyreactivity”. In the case of “QVQLVESGGGLVQAGGSLRLSCAASGSTFDVYAMGWYRQAPGKERELVATISTSGGDTYYADSVKGRFTISRDNAKNTVYLQMNSLNPEDTAVYYCNVSASYYSPDPKVLVRYDYWGQGTQVTVSS” it was “low polyreactivity”; in that of “QVQLVESGGGLVQAGGSLRLSCAASGSTFDVYAMGWYRQAPGKERELVAVINTSGTRTYYADSVKGRFTISRDNAKNTVYLQMNSLKPEDTAVYYCNAGGHLEMNYWGLGTQVTVSS”, “low polyreactivity”. For “QVQLVESGGGLVQAGGSLRLSCAASGSTFDVYAMGWYRQAPGKERELVAVINTSGTRTYYADSVKGRFTISRDNAKNTVYLQMNSLKPEDTAVYYCNAGGHLEMNYWGQGTEVTVSS”, the “polyreactivity (PSR sort gate)” value is “low polyreactivity”. On to “QVQLVESGGGLVQAGGSLRLSCAASGSTFDVYAMGWYRQGPGKERELVATISNYGGDTYYADSVKGRFTISRDNAENTVYLQMNTLKPEDTAVYYCNAYLRFVDVSLDYQLLLEHDFWGQGTQVTVSS”, for which the “polyreactivity (PSR sort gate)” value is listed as “low polyreactivity”. For the sequence “QVQLVESGGGLVQAGGSLRLSCAASGSTFDVYTMGWYRQAPGKERELVATISGDDGSTYYADSVKGRFTISRDNAKNTVYLQMNSLKPEDTAVYYCAADYGGFPNYYSTGDYWGQGTQVTVSS”, the “polyreactivity (PSR sort gate)” value was “low polyreactivity”.

Regarding “QVQLVESGGGLVQAGGSLRLSCAASGSTFDWYAMGWYRQAPGKERELVATIRYRGGTSYADSVKGRFTISRDNEKNTVYLQMNSLKPEDTAVYYCNAQLYIFDDSYNYWGFDYWGQGTQVTVSS”, the “polyreactivity (PSR sort gate)” value is reported as “high polyreactivity”.

For “QVQLVESGGGLVQAGGSLRLSCAASGSTFDWYVMGWDRQAPGKERELVADITWSGDSTYYADSVKGRFTISRDNAKNTVYLQMNSLKPEDTAVYYCAADAYTLFYFYVYEYNYWGQGTQVTVSS”, the “polyreactivity (PSR sort gate)” value is on record as “high polyreactivity”. As to “QVQLVESGGGLVQAGGSLRLSCAASGSTFDYNAMGGYRQAPGKERELVAAISRGGNTYYADSVKGRFTISRDNAKNTVYLQMNSLKPEDTAVYYCAKDSYGSYRFVRNRQKAYGYWGQGTQVTVSS”, the “polyreactivity (PSR sort gate)” value is reported as “low polyreactivity”. Turning to “QVQLVESGGGLVQAGGSLRLSCAASGSTFDYNAMGWYRQAPGKERELVAAISSTGGSTYYADSVKGRFTISRDNAKNTVYLQMNSLKPEDTAVYFCARYYAIVSGYYDDGYWGQGTQVTVSS”, the “polyreactivity (PSR sort gate)” value is recorded as “high polyreactivity”. Regarding “QVQLVESGGGLVQAGGSLRLSCAASGSTFDYNAMGWYRQAPGKERELVATITSTGRTNYADSVKGRFTISRDNAKNTVYLQMNSLKPEDTAVYYCAKRTFFGKARGGPTYRLYYWGQGTQVTVSS”, the “polyreactivity (PSR sort gate)” value is given as “high polyreactivity”. In the case of “QVQLVESGGGLVQAGGSLRLSCAASGSTFDYNAMVWYRQAPGKESDLVVAITWGGDSTYADSVKGRFTISRDNAKNTVYLQMNSLKPEDTAVYYCAAEQDPWTSRYVFFASRYDYWGQGTQVTVSS” it was “low polyreactivity”. On to “QVQLVESGGGLVQAGGSLRLSCAASGSTFDYNTMGWYRQAPGKERELVADITLRGASTYYADSVKGRFTISRDNAKNTVYLLMNSLKPEDTAVYYCNADYYWGTYANFDYWGQGTQVTVSS”, for which the “polyreactivity (PSR sort gate)” value is on record as “low polyreactivity”. As for “QVQLVESGGGLVQAGGSLRLSCAASGSTFDYNTMGWYRQAPGTERELVADITWRGASTYYADSVKGRFTISRDNAKNTVYLQMNSLKPEDTAVYYCAADYYSATGSYAYDYWGQGTQVTVSS”, the “polyreactivity (PSR sort gate)” value is “low polyreactivity”. With “QVQLVESGGGLVQAGGSLRLSCAASGSTFDYYAMGWYRQAPGKERELVGVISSSGGSTYYADSVKGGFTISRDNAKNTVYLQMNSLKPEDTAVYYCAALYRNYGSSYAYYYWGQGTQVTVSS”, the “polyreactivity (PSR sort gate)” value is given as “low polyreactivity”. Consider “QVQLVESGGGLVQAGGSLRLSCAASGSTFDYYAMGWYRQTPGKERELVAAISWSGGSTYYADSVKGRFTISRDNAKNTVYLQMNSPKPEDTAVYYCATGTYFPRYKYFEGYYWGQGTQVTVSS”, for which the “polyreactivity (PSR sort gate)” value is “high polyreactivity”. As to “QVQLVESGGGLVQAGGSLRLSCAASGSTFDYYDMGWYRQAPGKERELVATVTSGGSTNYADSVKGRFTISRDNAKNTVYLQMNSLKPEDTAVYYCAADIGGDGEGYDYWGQGTQVTLSS”, the “polyreactivity (PSR sort gate)” value is “low polyreactivity”. Regarding “QVQLVESGGGLVQAGGSLRLSCAASGSTFDYYPMGWYRQAPGKERELVAGIDSAGSTNYADSVKGRFTISRDNAKNTVYLQMNSLKTGRYRGLYCNVGKTITTYAFPTFDYWGQGTQVTVSS”, the “polyreactivity (PSR sort gate)” value is listed as “low polyreactivity”. Take “QVQLVESGGGLVQAGGSLRLSCAASGSTFDYYTMGWYRQAPGKERELVAAINSSGGRTYYADSVKGRFTISRDNAKNTDYLQMNSLKPEVTAVYYCARTRSVYGYDYWGQGTQVTVSS”: the “polyreactivity (PSR sort gate)” value is “high polyreactivity”.
